Test results from patent US20250129168A1 (DREN BIO, published 2025).

Key:
[1] = target: T1, Fc gamma receptor CD16a F variant (human, UniProt P08637); assay: ELISA, plate coated with recombinant huCD16a (F variant), detection with peroxidase anti-human IgG F(ab')2, OD 450 nm - 630 nm
T1 construct: recombinant protein coated on the ELISA plate; also called recombinant huCD16a

[2] = target: T2, human Dectin-1 (isoform not given) (human, UniProt Q9BXN2 1-247); assay: cell-based or functional assay
T2 chain: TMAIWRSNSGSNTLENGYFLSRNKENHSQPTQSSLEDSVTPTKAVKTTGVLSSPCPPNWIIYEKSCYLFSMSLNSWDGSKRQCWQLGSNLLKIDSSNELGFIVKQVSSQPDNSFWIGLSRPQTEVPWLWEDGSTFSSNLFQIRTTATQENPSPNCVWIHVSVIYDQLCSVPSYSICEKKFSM

[3] = target: T3, cynomolgus monkey Dectin-1 (cynomolgus monkey, UniProt A0A2K5UXY6 35-281); assay: flow cytometry, cynomolgus monkey monocytes
T3 construct: whole, on cells; also called cynomolgus Dectin-1; cyno Dectin-1
T3 sequence: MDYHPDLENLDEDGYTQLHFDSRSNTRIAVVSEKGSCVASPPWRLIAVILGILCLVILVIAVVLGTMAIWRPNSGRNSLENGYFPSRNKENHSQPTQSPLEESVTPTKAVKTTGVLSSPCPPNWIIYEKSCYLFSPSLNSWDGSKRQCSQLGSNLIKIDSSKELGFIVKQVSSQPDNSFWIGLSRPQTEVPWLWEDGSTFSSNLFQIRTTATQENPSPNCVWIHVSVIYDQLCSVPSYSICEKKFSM

[4] = target: T2, human Dectin-1 (isoform not given); assay: flow cytometry on human monocytes
human Dectin-1 isoform A [5] = target: T4, human Dectin-1 isoform A (human, UniProt Q9BXN2 1-247); assay: flow cytometry on HEK-Blue hDectin-1a cells
T4 construct: On HEK-Blue hDectin-1a cells (Invivogen); also called hDectin-1a
T4 sequence: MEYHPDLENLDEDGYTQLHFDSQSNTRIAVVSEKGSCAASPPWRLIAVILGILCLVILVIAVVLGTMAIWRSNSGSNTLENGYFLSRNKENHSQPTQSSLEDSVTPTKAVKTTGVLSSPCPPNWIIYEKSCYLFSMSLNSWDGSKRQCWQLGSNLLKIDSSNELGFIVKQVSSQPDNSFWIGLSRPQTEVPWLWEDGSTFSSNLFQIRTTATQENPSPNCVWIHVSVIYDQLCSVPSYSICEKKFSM

human Dectin-1 isoform B [6] = target: T5, human Dectin-1 isoform B (human, UniProt Q9BXN2 1-247); assay: flow cytometry on HEK-Blue hDectin-1b cells
T5 construct: On HEK-Blue hDectin-1b cells (Invivogen); also called hDectin-1b
T5 sequence: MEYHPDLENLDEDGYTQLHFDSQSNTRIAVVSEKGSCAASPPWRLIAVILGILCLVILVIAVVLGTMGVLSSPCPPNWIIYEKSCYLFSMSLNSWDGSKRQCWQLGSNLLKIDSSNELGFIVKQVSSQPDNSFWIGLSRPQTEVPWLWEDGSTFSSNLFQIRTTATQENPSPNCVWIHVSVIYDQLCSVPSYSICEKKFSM

human Dectin-1 isoform A [7] = target: T4, human Dectin-1 isoform A; assay: flow cytometry on HEK293F hDectin-1a FL cells
[8] = target: T2, human Dectin-1 (isoform not given); assay: flow cytometry on human monocytes (summary table)
human Dectin-1 isoform A [9] = target: T4, human Dectin-1 isoform A; assay: flow cytometry on HEK-Blue hDectin-1a cells (summary table)
human Dectin-1 isoform B [10] = target: T5, human Dectin-1 isoform B; assay: flow cytometry on HEK-Blue hDectin-1b cells (summary table)
human Dectin-1 isoform A [11] = target: T4, human Dectin-1 isoform A; assay: flow cytometry on HEK293F hDectin-1a FL cells (summary table)
[12] = target: T2, human Dectin-1 (isoform not given); assay: flow cytometry on Dectin-1-expressing HEK cells
Trop-2 = target: T6, Trop-2 (human, UniProt P09758 27-323); assay: flow cytometry on A431 cells (Trop-2-expressing)
T6 construct: whole, on cells
T6 sequence (looked up): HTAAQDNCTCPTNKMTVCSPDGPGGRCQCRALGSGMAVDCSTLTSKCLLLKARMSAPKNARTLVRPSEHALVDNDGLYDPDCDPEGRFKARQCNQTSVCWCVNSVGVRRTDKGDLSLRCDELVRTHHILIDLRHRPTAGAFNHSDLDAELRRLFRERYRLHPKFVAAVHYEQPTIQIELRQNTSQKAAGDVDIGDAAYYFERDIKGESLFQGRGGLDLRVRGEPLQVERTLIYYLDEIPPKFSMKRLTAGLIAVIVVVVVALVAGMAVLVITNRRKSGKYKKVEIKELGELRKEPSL

[13] = target: T2, human Dectin-1 (isoform not given); assay: flow cytometry on Dectin-1-expressing HEK cells, 4PL fit [upper panel]

T1 sequence (P08637 17-208 limits assumed, change not shown): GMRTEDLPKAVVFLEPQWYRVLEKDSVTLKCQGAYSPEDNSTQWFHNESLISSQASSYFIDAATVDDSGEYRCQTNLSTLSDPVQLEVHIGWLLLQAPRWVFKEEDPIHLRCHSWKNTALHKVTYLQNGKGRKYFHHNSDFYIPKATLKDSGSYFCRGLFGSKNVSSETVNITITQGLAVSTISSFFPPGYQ

B1: 2M24 CD20 NF (bispecific antibody)
chain 1: not shown
chain 2: not shown
chain 3: not shown
chain 4: QIVLSQSPAILSASPGEKVTMTCRASSSVSYIHWFQQKPGSSPKPWIYATSNLASGVPVRFSGSGSGTSYSLTISRVEAEDAATYYCQQWTSNPPTFGGGTKLEIKRTVAAPSVFIFPPSDEQLKSGTASVVCLLNNFYPREAKVQWKVDNALQSGNSQESVTEQDSKDSTYSLSSTLTLSKADYEKHKVYACEVTHQGLSSPVTKSFNRGEC
modifications: non-fucosylated Fc glycan
In the case of B1, the “EC50 (read off the curve)” value [1] is reported as about 100 ng/mL.

B2: commercial anti-Dectin-1 antibody 15E2 (antibody, V domains shown)
VH: QWQLQQSGAELARPGASWKMSCKASGYTFTTYTMHWWKQRPGQGLEWIGYINPSSGYTNYNQKFKDKATLTADKSSSTASMQLSSLTSEDSAWYYCARERAVLVPYAMDYWGQGTSVTVSS
VL: QIVLTQSPAVMSASPGEKWTITCTASSSLSYMHWFQQKPGTSPKLWLYSTSILASGVPTRFSGSGSGTSYSLTISRMEAEDAATYYCQQRSSSPFTFGSGTKLEIK
In the case of B2, the “IFNg secretion in PBMC, immobilized antibody (fold change to isotype)” value [2] is reported as 1.6 fold change to isotype, the “IL6 secretion in PBMC, immobilized antibody (fold change to isotype)” value [2] is reported as 2.6 fold change to isotype and the “TNFa secretion in PBMC, immobilized antibody (fold change to isotype)” value [2] is reported as 3 fold change to isotype. For the same binder, the EC50 [3] was 14 nM, the EC50 [4] was 0.6 nM and the EC50 (human Dectin-1 isoform A [5]) was 1.2 nM. For the same binder, the EC50 (human Dectin-1 isoform B [6]) was 9.3 nM, the EC50 (human Dectin-1 isoform A [7]) was 1.4 nM and the EC50 [8] was 0.6 nM. For the same binder, the EC50 (human Dectin-1 isoform A [9]) was 1.2 nM, the EC50 (human Dectin-1 isoform B [10]) was 9.3 nM and the EC50 (human Dectin-1 isoform A [11]) was 1.4 nM.

B3: 2M24/Trop-2 hIgG1 bispecific antibody (bispecific antibody, V domains shown)
VH 1: QVQLVQSGAEVKKPGASVKVSCKSSGYTFTDYYIHWVRQAPGQGLEWMGWINPNSGDTNYAQKFQGRITMTRDTSISTAYLELSRLRSDDTAVFYCARNSGSYSFGYWGQGTLVTVSS
VL 1: DIQMTQSPSSVSASVGDRVTITCRASQGISSWLAWYQQKPGKAPKLLIFGASSLQSGVPSRFSGSGSGTDFTLTVSSLQPEDFATYYCQQAYSFPFTFGPGTKVDIE
VH 2: QVQLQQSGSELKKPGASVKVSCKASGYTFTNYGMNWVKQAPGQGLKWMGWINTYTGEPTYTDDFKGRFAFSLDTSVSTAYLQISSLKADDTAVYFCARGGFGSSYWYFDVWGQGSLVTVSS
VL 2: DIQLTQSPSSLSASVGDRVSITCKASQDVSIAVAWYQQKPGKAPKLLIYSASYRYTGVPDRFSGSGSGTDFTLTISSLQPEDFAVYYCQQHYITPLTFGAGTKVEIK
notes: Human IgG1; also called anti-Dectin-1 (2M24)/anti-Trop-2 bispecific antibody
For B3, the “EC50 (read off the curve)” value [12] was about 3 nM.

B4: parental anti-Trop2 monospecific antibody (antibody, V domains shown)
VH: B3 VH 2
VL: B3 VL 2
B4 was tested, and the “EC50 (read off the curve)” value (Trop-2) was about 8 nM.

B5: 2M24/Nectin-4 hIgG1 bispecific antibody (bispecific antibody, V domains shown)
VH 1: B3 VH 1
VL 1: B3 VL 1
VH 2: EVQLVESGGGLVQPGGSLRLSCAASGFTFSSYNMNWVRQAPGKGLEWVSYISSSSSTIYYADSVKGRFTISRDNAKNSLSLQMNSLRDEDTAVYYCARAYYYGMDVWGQGTTVTVSS
VL 2: DIQMTQSPSSVSASVGDRVTITCRASQGISGWLAWYQQKPGKAPKFLIYAASTLQSGVPSRFSGSGSGTDFTLTISSLQPEDFATYYCQQANSFPPTFGGGTKVEIK
notes: Human IgG1
Work on B5 yielded an EC50 [13] of 2.65 nM.
